Columns and labels:
Rat-1 cells = assay: Cell death induced by transient overexpression of lacZ fusion constructs, X-gal staining; format: cell-based; settings: lacZ fusion construct, 24 hr after transfection
Excerpt: (§1) FIGS. 4A-4C. Cell death induced by overexpression of caspase-12. […] The round cells expressing the casp-12L-lacZ fusion proteins show condensed and fragmented nuclei. […] The data shown are the percentage of round blue cells among total number of blue cells counted. In each transfection, over 200 blue cells were randomly chosen and counted. The data of Rat-1 cells collected from at least three independent experiments. The constructs used were: casp-12L-lacZ, casp-12S-lacZ, casp-12Δ-lacZ, ICE-lacZ, lacZ. Rat embryonic fibroblast cells (REF) were also transfected with either casp-12L-lacZ or lacZ.
To examine if expression of caspase-12 induces apoptosis, a transient expression system was used to overexpress caspase-12 in mammalian cells. […] Transfected cells are easily detected by staining with X-gal because of the β-galactosidase activity of lacZ. Expression constructs of casp-12L and casp-12S fused with lacZ gene in pcDNA3 vector, which contains the cytomegalovirus (CMV) promoter, were generated. These expression constructs were introduced into Rat-1 cells by transfection, and the expression of the genes were examined 24 hr after transfection using X-gal reaction.
(§2) Rat-1, rat embryonic fibroblast cells, NG108-15, HeLa and COS-1 were maintained in culture at 37° C. with 5% CO2 in Dulbecco's modified Eagle's medium containing 10% (v/v) fetal bovine serum (BioWhittaker) and 50 units/ml penicillin and 50 μg/ml streptomycin (Sigma). The day before transfection, cells were seeded at a density of 1.3×10^4 cells/cm^2. Expression constructs were transferred to cells with either calcium phosphate or lipofectamine (GIBCO BRL) as previously described (Miura, M., et al., Cell 75:653-660 (1993); Kumar, S., et al., Genes and Development 8:1613-1626 (1994); Wang, L., et al., Cell 78:739-750 (1994)). The expression of chimeric genes in cells was detected by staining of cells with 5-bromo-4-chloro-3-indolyl β-D-galactoside (X-gal) as previously described (Miura, M., et al., Cell 75:653-660 (1993); Kumar, S., et al., Genes and Development 8:1613-1626 (1994); Wang, L., et al., Cell 78:739-750 (1994)). Immunostaining of transfected cells was done as previously described using mouse monoclonal anti-lacZ antibody (Miura, M., et al., Cell 75:653-660 (1993); Kumar, S., et al., Genes and Development 8:1613-1626 (1994); Wang, L., et al., Cell 78:739-750 (1994)).

[1] = system: rat embryonic fibroblast cells; assay: as above; format: cell-based; settings: primary rat embryonic fibroblasts, FIG. 4C
Excerpt: as §1
Rat-1, rat embryonic fibroblast cells, NG108-15, HeLa and COS-1 were maintained in culture at 37° C. with 5% CO2 in Dulbecco's modified Eagle's medium containing 10% (v/v) fetal bovine serum (BioWhittaker) and 50 units/ml penicillin and 50 μg/ml streptomycin (Sigma). The day before transfection, cells were seeded at a density of 1.3×10^4 cells/cm^2. […] The expression of chimeric genes in cells was detected by staining of cells with 5-bromo-4-chloro-3-indolyl β-D-galactoside (X-gal) as previously described (Miura, M., et al., Cell 75:653-660 (1993); Kumar, S., et al., Genes and Development 8:1613-1626 (1994); Wang, L., et al., Cell 78:739-750 (1994)). […]

Rat-1/bcl-2 = assay: Effect of cell death suppressor bcl-2 on caspase-12 killing activity; format: cell-based; settings: casp-12L-lacZ in Rat-1/bcl-2 stable transfectant
Protocol: FIGS. 5A-5B. Effect of cell death suppressors on the killing activity of caspase-12. […] Cell death was assayed as described in FIG. 4C. […] The data from transfection of the parental cell line, Rat-1 (FIG. 4C), are included in the figures for comparison. The lacZ construct was also used for transfection as a control.
To determine if expression of bcl-2 and crmA can inhibit apoptosis induced by casp-12 overexpression, casp-12L-lacZ fusion construct was transfected into stable cell lines of Rat-1 that overexpresses either bcl-2 or crmA (Miura, M., et al., Cell 75:653-660 (1993)). Cell death was assayed as described above (Example 3). […] The magnitude of the bcl-2 suppression against toxicity of casp-12 overexpression was about 10% (60% for Rat-1, 50% for Rat-1/bcl-2) which is much smaller than that observed for ICE and casp-2 (FIG. 5A; Wang, L., et al., Cell 78:739-750 (1994)).

HeLa = assay: Cell type specificity of cell killing, lacZ fusion transfection; format: cell-based; settings: FIG. 6
Protocol: (§3) FIG. 6. The cell type specificity of caspase-12-induced cell killing activity. NG108-15, HeLa and COS-1 cells were transfected with casp-12L-lacZ, casp-12S-LacZ, lacZ or ICE-lacZ. Staining of transfectants were done and the data are presented as in FIG. 4C.
as §2, with “Immunostaining of transfected cells was done as previously described using mouse monoclonal anti-lacZ antibody (Miura, M., et al., Cell 75:653-660 (1993); Kumar, S., et al., Genes and Development 8:1613-1626 (1994); Wang, L., et al., Cell 78:739-750 (1994)).” left out

NG108-15 = assay: as above; format: cell-based; settings: NG108-15, FIG. 6
Protocol: as §3
as §2, with “Immunostaining of transfected cells was done as previously described using mouse monoclonal anti-lacZ antibody (Miura, M., et al., Cell 75:653-660 (1993); Kumar, S., et al., Genes and Development 8:1613-1626 (1994); Wang, L., et al., Cell 78:739-750 (1994)).” left out

COS-1 cells = assay: as above; format: cell-based, monkey; settings: COS-1, FIG. 6
Protocol: as §3
as §2, with “Immunostaining of transfected cells was done as previously described using mouse monoclonal anti-lacZ antibody (Miura, M., et al., Cell 75:653-660 (1993); Kumar, S., et al., Genes and Development 8:1613-1626 (1994); Wang, L., et al., Cell 78:739-750 (1994)).” left out

[2] = Protease activity of full-length recombinant caspase-12 from E. coli; format: biochemical; settings: expressed and purified from E. coli
caspase-12 = target: T1, caspase-12 (Mus musculus, UniProt O08736); assay: Suppression of cell-killing activity of caspase-12 by baculovirus p35; format: cell-based; settings: unpublished data
T1 sequence (O08736 1-419): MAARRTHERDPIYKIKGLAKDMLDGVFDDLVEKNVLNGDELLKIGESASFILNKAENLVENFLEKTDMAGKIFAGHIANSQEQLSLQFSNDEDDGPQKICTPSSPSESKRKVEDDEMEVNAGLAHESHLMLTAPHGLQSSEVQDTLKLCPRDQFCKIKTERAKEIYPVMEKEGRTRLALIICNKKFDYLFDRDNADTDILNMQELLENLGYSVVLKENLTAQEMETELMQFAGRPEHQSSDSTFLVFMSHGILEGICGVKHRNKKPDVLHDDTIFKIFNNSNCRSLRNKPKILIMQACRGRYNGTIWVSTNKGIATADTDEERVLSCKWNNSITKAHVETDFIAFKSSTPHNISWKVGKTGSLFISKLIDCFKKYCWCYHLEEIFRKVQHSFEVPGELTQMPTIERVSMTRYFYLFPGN

[3] = target: T2, caspase-12Δ (Gly95-Asn419 of caspase-12L, with an artificial initiation codon), [35S]-labeled
T2 chain: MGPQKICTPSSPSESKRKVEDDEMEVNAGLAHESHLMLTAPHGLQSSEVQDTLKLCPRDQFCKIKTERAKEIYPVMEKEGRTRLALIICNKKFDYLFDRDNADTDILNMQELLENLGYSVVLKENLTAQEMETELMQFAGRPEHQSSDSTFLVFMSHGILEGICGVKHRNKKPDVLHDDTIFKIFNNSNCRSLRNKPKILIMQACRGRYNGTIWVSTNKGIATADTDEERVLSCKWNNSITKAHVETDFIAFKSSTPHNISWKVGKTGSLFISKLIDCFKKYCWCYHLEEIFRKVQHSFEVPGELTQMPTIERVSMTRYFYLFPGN

[4] = target: poly(ADP-ribose) polymerase
[5] = target: T3, pro-caspase-12 (caspase-12L, full-length precursor, 419 residues, 48 kDa)
T3 chain: T1 sequence (O08736 1-419)

[6] = target: T4, pro-caspase-2 ([35S]-labeled)
T4 sequence (P42575 2-452, species assumed, looked up): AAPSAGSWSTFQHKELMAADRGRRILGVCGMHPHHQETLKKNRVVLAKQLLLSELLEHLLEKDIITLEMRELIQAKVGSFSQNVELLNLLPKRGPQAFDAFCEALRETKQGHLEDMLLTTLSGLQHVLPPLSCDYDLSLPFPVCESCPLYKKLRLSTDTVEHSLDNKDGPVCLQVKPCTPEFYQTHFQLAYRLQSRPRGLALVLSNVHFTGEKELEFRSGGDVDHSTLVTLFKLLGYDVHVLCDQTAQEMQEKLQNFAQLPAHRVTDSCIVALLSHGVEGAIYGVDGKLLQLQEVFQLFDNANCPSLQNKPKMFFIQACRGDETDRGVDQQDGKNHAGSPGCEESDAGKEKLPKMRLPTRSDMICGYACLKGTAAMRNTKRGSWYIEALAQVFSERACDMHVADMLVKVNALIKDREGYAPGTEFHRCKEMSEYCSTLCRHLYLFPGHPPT

[7] = target: T5, pro-caspase-3 ([35S]-labeled)
T5 sequence (P42574 1-277, species assumed, looked up): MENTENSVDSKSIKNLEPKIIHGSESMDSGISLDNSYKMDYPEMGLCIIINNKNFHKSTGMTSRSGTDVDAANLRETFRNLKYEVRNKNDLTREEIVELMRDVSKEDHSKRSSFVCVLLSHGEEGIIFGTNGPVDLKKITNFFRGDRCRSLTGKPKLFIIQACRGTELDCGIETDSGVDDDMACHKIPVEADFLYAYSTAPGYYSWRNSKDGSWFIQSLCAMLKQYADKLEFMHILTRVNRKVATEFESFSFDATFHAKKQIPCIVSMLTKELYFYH

Sequence of pro-IL-1β (P01584 whole entry): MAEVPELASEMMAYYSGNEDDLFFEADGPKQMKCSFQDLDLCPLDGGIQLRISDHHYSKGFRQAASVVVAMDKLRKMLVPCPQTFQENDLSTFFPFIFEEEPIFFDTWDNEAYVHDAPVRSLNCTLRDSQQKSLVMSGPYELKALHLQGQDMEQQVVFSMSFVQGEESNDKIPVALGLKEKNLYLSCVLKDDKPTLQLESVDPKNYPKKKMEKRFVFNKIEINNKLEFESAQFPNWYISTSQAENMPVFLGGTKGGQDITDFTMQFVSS
Sequence of pro-ICE ([35S]-labeled) (P29466 whole entry): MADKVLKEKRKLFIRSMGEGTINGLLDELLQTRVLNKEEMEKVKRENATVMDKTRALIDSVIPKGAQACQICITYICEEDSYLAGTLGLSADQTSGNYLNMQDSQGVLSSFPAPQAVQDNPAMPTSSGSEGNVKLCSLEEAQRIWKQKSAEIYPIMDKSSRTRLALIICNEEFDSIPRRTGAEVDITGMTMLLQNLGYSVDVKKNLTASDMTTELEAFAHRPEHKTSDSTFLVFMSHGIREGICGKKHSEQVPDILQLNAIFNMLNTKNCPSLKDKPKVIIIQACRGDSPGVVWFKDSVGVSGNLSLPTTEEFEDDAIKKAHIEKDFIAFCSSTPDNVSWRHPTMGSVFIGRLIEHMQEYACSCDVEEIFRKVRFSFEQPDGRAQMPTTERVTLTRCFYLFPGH

B1: caspase-12L: long form of mouse caspase-12, 419 amino acid residues (SEQ ID NO:2); expressed as lacZ fusion (protein)
chain: T1 sequence (O08736 1-419)
modifications: lacZ fusion
percentage of cell death (round blue cells among total blue cells) (Rat-1 cells): about 60%
percentage of cell death (round blue cells among total blue cells) (Rat-1 cells; listed as casp-12L-lacZ): 60%
transfected cells round and small [1]: about 60%
percentage of cell death (Rat-1/bcl-2): 50%
apoptosis induced by casp-12L expression (HeLa): resistant to apoptosis
apoptosis induced by casp-12L expression (NG108-15): resistant to apoptosis
apoptosis induced by casp-12L expression (COS-1 cells): resistant to apoptosis
processing and protease activity in vitro [2]: without any processing and protease activity

B2: baculovirus p35: virus inhibitor for the caspase family (protein, UniProt P08160 1-299, looked up)
Early 35 kDa protein: MCVIFPVEIDVSQTIIRDCQVDKQTRELVYINKIMNTQLTKPVLMMFNISGPIRSVTRKNNNLRDRIKSKVDEQFDQLERDYSDQMDGFHDSIKYFKDEHYSVSCQNGSVLKSKFAKILKSHDYTDKKSIEAYEKYCLPKLVDERNDYYVAVCVLKPGFENGSNQVLSFEYNPIGNKVIVPFAHEINDTGLYEYDVVAYVDSVQFDGEQFEEFVQSLILPSSFKNSEKVLYYNEASKNKSMIYKALEFTTESSWGKSEKYNWKIFCNGFIYDKKSKVLYVKLHNVTSALNKNVILNTIK
suppression of cell-killing activity of caspase-12 (caspase-12): could not efficiently suppress

B3: His-tagged caspase-12Δ2 (residues 145-419 of caspase-12L), partially purified from E. coli, autoprocessed into p24 and p10 (protein)
chain 1: TLKLCPRDQFCKIKTERAKEIYPVMEKEGRTRLALIICNKKFDYLFDRDNADTDILNMQELLENLGYSVVLKENLTAQEMETELMQFAGRPEHQSSDSTFLVFMSHGILEGICGVKHRNKKPDVLHDDTIFKIFNNSNCRSLRNKPKILIMQACRGRYNGTIWVSTNKGIATAD
chain 2: TDEERVLSCKWNNSITKAHVETDFIAFKSSTPHNISWKVGKTGSLFISKLIDCFKKYCWCYHLEEIFRKVQHSFEVPGELTQMPTIERVSMTRYFYLFPGN
in vitro cleavage of [35S]-labeled protein by the partially purified protease [3]: the 38 kDa polypeptide was cleaved into 26 kDa and 13 kDa fragments
in vitro cleavage by the purified protease [4]: showed little activity for cleavage of pro-IL-1β and poly(ADP-ribose) polymerase
in vitro cleavage of [35S]-labeled pro-enzyme by the partially purified protease (pro-ICE ([35S]-labeled)): only faint bands of cleavage products were visible
in vitro cleavage by the purified protease (pro-IL-1β): showed little activity for cleavage of pro-IL-1β and poly(ADP-ribose) polymerase
in vitro cleavage of [35S]-labeled pro-enzyme by the partially purified protease [5]: can efficiently process pro-caspase-12 (48 kDa) into fragments
in vitro cleavage of [35S]-labeled pro-enzyme by the partially purified protease [6]: only faint bands of cleavage products were visible
in vitro cleavage of [35S]-labeled pro-enzyme by the partially purified protease [7]: only faint bands of cleavage products were visible

Reference: patent publication US6642368B1, “Programmed cell death and caspase-12” (The General Hospital Corporation, priority 1998, dated 2003)
